One data set addresses T1, wild-type OCT2 (Homo sapiens, UniProt O15244).
T1 sequence (O15244 1-555 S270A): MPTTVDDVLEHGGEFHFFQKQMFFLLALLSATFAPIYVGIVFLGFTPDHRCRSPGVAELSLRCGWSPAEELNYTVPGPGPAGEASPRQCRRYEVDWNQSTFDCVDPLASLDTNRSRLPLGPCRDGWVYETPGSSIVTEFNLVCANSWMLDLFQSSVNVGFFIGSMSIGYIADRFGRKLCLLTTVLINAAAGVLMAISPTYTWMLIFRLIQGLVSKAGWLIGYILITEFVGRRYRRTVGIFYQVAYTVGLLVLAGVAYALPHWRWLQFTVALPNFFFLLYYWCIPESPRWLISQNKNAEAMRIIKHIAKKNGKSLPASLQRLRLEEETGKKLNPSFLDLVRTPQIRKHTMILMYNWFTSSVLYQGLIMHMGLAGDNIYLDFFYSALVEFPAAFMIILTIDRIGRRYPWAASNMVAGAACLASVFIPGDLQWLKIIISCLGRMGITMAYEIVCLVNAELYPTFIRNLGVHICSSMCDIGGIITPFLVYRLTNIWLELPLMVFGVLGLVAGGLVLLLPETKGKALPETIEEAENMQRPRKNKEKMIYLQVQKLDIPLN
As to the kind of experiment: Concentration-dependent transport by wild-type OCT2 in HEK293 cells. Conditions: for vmax: OCT2 WT.

The conditions of data set [1]: cited from earlier work.
The target in the next data set is T2, OCT2 (Homo sapiens, UniProt O15244).
T2 sequence (O15244 1-555 S270A): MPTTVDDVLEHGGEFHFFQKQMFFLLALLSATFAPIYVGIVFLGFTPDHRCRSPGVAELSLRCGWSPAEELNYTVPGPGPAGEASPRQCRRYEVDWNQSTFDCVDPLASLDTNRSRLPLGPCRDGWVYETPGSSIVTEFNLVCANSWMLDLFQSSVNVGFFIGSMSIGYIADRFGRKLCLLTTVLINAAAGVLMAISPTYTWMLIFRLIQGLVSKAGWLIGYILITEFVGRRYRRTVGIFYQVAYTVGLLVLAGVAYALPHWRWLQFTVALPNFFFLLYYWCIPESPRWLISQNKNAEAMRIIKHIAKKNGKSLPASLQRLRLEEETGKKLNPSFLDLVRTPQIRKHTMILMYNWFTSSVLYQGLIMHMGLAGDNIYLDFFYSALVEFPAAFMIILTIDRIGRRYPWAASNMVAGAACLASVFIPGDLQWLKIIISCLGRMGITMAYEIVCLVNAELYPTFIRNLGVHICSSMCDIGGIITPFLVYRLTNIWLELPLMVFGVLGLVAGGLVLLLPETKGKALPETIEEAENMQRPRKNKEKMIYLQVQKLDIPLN
As to the kind of experiment: Screening of cellular uptake at 1 µM, OCT2-overexpressing HEK293 cells over empty vector control cells. Conditions: 2 min. An excerpt:
(§1) Koepsell and Gorbulev (University of Würzburg, Germany).
(§2) Eighteen psychostimulants and hallucinogens were initially screened for their potential to be substrates for different polyspecific OCTs and high-affinity monoamine neurotransmitter transporters (Figure 3), as well as for the efflux transporter MATE2-K (Supplementary Figure S1).

The target in another data set is T3, OCT2 variant A270S (Homo sapiens, UniProt O15244).
T3 sequence (O15244 1-555): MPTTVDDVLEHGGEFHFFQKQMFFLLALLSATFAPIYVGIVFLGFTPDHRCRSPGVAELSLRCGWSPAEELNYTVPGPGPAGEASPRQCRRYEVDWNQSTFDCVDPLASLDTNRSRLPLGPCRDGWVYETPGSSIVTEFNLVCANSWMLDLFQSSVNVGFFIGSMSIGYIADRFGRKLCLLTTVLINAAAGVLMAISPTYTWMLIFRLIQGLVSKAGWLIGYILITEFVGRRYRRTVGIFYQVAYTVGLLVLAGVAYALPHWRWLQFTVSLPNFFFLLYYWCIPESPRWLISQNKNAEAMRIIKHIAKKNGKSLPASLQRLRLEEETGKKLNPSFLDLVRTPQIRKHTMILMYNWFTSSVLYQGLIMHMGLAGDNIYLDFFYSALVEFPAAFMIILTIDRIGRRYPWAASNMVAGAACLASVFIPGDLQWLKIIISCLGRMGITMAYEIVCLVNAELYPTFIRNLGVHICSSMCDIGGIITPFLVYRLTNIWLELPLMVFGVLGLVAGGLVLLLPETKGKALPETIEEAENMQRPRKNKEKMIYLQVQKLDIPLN
Kind of data set: Concentration-dependent transport by OCT2 variant A270S in HEK293 cells. The following applies: OCT2 A270S.

Another data set concerns the target SERT (Homo sapiens, UniProt P31645). As to the kind of experiment: Screening of cellular uptake at 1 µM, SERT-overexpressing HEK293 cells over empty vector control cells. The format is in vitro ADME. Conditions: 2 min.
A further data set addresses T4, OCT3 (Homo sapiens, UniProt O75751).
T4 construct: Koepsell and Gorbulev (University of Würzburg); host or cells: HEK293
T4 sequence (O75751 1-556): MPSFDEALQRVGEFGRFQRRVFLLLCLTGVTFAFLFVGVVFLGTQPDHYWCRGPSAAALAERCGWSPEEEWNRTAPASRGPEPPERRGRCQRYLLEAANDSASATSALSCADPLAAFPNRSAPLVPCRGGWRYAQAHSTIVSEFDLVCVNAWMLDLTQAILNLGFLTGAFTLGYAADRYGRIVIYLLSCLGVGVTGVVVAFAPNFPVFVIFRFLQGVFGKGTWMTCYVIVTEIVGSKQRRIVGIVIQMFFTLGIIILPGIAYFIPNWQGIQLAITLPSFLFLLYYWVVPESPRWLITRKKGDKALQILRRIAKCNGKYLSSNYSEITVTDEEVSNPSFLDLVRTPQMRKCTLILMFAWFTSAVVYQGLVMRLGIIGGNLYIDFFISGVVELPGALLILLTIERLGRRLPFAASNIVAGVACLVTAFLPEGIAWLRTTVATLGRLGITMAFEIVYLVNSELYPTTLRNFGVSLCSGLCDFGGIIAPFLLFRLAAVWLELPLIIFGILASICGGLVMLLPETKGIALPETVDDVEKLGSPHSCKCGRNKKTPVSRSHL
Kind of data set: Screening of cellular uptake at 1 µM, OCT3-overexpressing HEK293 cells over empty vector control cells. The format is in vitro ADME. Conditions: 2 min.
Source text: as §1, §2

Substrate in data set [2]: COc1cc(CCN)cc(OC)c1OC
As to the kind of experiment: not read. Conditions: other: OCT1*1 (WT); net transport, 2 min; pH 7.4; 37.0 °C.

Substrate in data set [3]: CN[C@@H](C)[C@H](O)c1ccccc1
Kind of data set: not read. Conditions: pH 7.4, 37.0 °C.

Substrate in data set [4]: CN(C)CCc1c[nH]c2ccccc12
Kind of data set: not read. Conditions: pH 7.4.

Substrate in data set [5]: CNC(C)Cc1ccc(OC)cc1
As to the kind of experiment: not read. The following applies: pH 7.4.

Substrate in data set [6]: CN[C@@H](C)Cc1ccccc1
Kind of data set: not read. The following applies: other: OCT2 A270S; pH 7.4; 37.0 °C.

Sequence of SERT (P31645 whole entry): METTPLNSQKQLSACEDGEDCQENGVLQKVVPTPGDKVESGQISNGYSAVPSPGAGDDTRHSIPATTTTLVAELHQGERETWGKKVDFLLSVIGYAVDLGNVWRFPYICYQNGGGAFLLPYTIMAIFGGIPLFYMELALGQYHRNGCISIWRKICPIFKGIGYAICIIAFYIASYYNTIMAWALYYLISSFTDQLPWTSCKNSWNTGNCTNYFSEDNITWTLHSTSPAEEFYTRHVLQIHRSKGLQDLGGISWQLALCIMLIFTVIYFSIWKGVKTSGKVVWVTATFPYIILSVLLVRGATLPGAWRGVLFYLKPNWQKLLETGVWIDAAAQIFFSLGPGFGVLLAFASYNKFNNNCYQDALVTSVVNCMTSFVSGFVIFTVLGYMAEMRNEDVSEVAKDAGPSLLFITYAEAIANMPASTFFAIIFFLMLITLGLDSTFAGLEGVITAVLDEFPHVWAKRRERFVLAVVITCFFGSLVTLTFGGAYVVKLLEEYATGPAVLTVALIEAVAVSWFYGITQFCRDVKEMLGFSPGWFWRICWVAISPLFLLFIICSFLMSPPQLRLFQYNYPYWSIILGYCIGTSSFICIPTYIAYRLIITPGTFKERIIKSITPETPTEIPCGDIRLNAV

As for `CN[C@@H](C)Cc1ccccc1` [Methylamphetamine], the vmax on wild-type OCT2 (listed as Methamphetamine) is 70.7 (± 8.3) pmol × mg protein^-1 × min^-1; at wild-type OCT2 (listed as methamphetamine), 70.7 ± 8.3 pmol × mg protein^-1 × min^-1; on OCT2 variant A270S, 34.5 (± 8.5) pmol × mg protein^-1 × min^-1. In addition, the Km at 2 min on wild-type OCT2 (human, pH 7.4) turned out to be 11.9 µM. In [1] (ref Toennes and Kauert, 2002, www.dosing.de and www.drugbank.ca), the renal elimination is given as 30–54%. Also, the “ratio of uptake in transporter-transfected cells over empty vector control cells” value (“ratio of uptake” for short) on OCT2 is 4- to 6 fold.

Consider `COc1ccc(CC(C)N)cc1` (stereo not shown) [PMA, para-methoxyamphetamine], for which the “ratio of uptake” value at SERT is “slightly higher (albeit still low) uptake”.

In the case of `CC(N)Cc1ccccc1` (stereo not shown) [Amphetamine], the “ratio of uptake” value on OCT3 is recorded as “does not appear to be a substrate”.

Take `C[C@H](N)C(=O)c1ccccc1` [Cathinone]: the “renal elimination (unchanged in urine)” value in data set [1] (ref Kalix and Braenden, 1985, Toennes and Kauert, 2002) is recorded as 2–7%.

With `CNC(C)Cc1ccc(OC)cc1` (stereo not shown) [PMMA, para-methoxymethamphetamine], the “ratio of uptake” value at OCT2 is listed as “approximately 3 fold”; on SERT it was “slightly higher (albeit still low) uptake”.

With `CN(C)CCc1c[nH]c2ccccc12` [DMT, dimethyltryptamine], the “excreted unchanged in urine” value in data set [1] (following intramuscular administration, ref Sitaram et al., 1987, Barker, 2018) is listed as 0.16%. In addition, the “ratio of uptake” value at OCT2 was “approximately 3 fold”.

B1: OCT1*1 (WT) (Homo sapiens) (protein)
chain: MPTVDDILEQVGESGWFQKQAFLILCLLSAAFAPICVGIVFLGFTPDHHCQSPGVAELSQRCGWSPAEELNYTVPGLGPAGEAFLGQCRRYEVDWNQSALSCVDPLASLATNRSHLPLGPCQDGWVYDTPGSSIVTEFNLVCADSWKLDLFQSCLNAGFLFGSLGVGYFADRFGRKLCLLGTVLVNAVSGVLMAFSPNYMSMLLFRLLQGLVSKGNWMAGYTLITEFVGSGSRRTVAIMYQMAFTVGLVALTGLAYALPHWRWLQLAVSLPTFLFLLYYWCVPESPRWLLSQKRNTEAIKIMDHIAQKNGKLPPADLKMLSLEEDVTEKLSPSFADLFRTPRLRKRTFILMYLWFTDSVLYQGLILHMGATSGNLYLDFLYSALVEIPGAFIALITIDRVGRIYPMAMSNLLAGAACLVMIFISPDLHWLNIIIMCVGRMGITIAIQMICLVNAELYPTFVRNLGVMVCSSLCDIGGIITPFIVFRLREVWQALPLILFAVLGLLAAGVTLLLPETKGVALPETMKDAENLGRKAKPKENTIYLKVQTSEPSGT
Consider B1, for which, in the data set “not read [2]”, the Km is recorded as 24.3 (±6.3) µM and the Vmax came out at 0.000642 µmol/min/mg.

B2: wild-type OCT2 (Homo sapiens; S270A) (protein)
chain: MPTTVDDVLEHGGEFHFFQKQMFFLLALLSATFAPIYVGIVFLGFTPDHRCRSPGVAELSLRCGWSPAEELNYTVPGPGPAGEASPRQCRRYEVDWNQSTFDCVDPLASLDTNRSRLPLGPCRDGWVYETPGSSIVTEFNLVCANSWMLDLFQSSVNVGFFIGSMSIGYIADRFGRKLCLLTTVLINAAAGVLMAISPTYTWMLIFRLIQGLVSKAGWLIGYILITEFVGRRYRRTVGIFYQVAYTVGLLVLAGVAYALPHWRWLQFTVALPNFFFLLYYWCIPESPRWLISQNKNAEAMRIIKHIAKKNGKSLPASLQRLRLEEETGKKLNPSFLDLVRTPQIRKHTMILMYNWFTSSVLYQGLIMHMGLAGDNIYLDFFYSALVEFPAAFMIILTIDRIGRRYPWAASNMVAGAACLASVFIPGDLQWLKIIISCLGRMGITMAYEIVCLVNAELYPTFIRNLGVHICSSMCDIGGIITPFLVYRLTNIWLELPLMVFGVLGLVAGGLVLLLPETKGKALPETIEEAENMQRPRKNKEKMIYLQVQKLDIPLN
Consider B2, for which the figures for the Km in the data set “not read [3]” (other: OCT2 WT), in “not read [4]” (other: OCT2 WT) and in the data set “not read [5]” (other: OCT2 WT) were 15.7 (± 4.6) μM, 13.0 (± 3.7) μM and 7.9 (± 2.6) μM, respectively. For the same molecule, the Vmax in the data set “not read [3]” (other: OCT2 WT) is 417.8 (± 35.6) pmol × mg protein^-1 × min^-1; in “not read [4]” (other: OCT2 WT), 296.7 (± 23.3) pmol × mg protein^-1 × min^-1; in the data set “not read [5]” (other: OCT2 WT), 225.1 (± 19.3) pmol × mg protein^-1 × min^-1.

B3: OCT2 variant A270S (Homo sapiens) (protein)
chain: MPTTVDDVLEHGGEFHFFQKQMFFLLALLSATFAPIYVGIVFLGFTPDHRCRSPGVAELSLRCGWSPAEELNYTVPGPGPAGEASPRQCRRYEVDWNQSTFDCVDPLASLDTNRSRLPLGPCRDGWVYETPGSSIVTEFNLVCANSWMLDLFQSSVNVGFFIGSMSIGYIADRFGRKLCLLTTVLINAAAGVLMAISPTYTWMLIFRLIQGLVSKAGWLIGYILITEFVGRRYRRTVGIFYQVAYTVGLLVLAGVAYALPHWRWLQFTVSLPNFFFLLYYWCIPESPRWLISQNKNAEAMRIIKHIAKKNGKSLPASLQRLRLEEETGKKLNPSFLDLVRTPQIRKHTMILMYNWFTSSVLYQGLIMHMGLAGDNIYLDFFYSALVEFPAAFMIILTIDRIGRRYPWAASNMVAGAACLASVFIPGDLQWLKIIISCLGRMGITMAYEIVCLVNAELYPTFIRNLGVHICSSMCDIGGIITPFLVYRLTNIWLELPLMVFGVLGLVAGGLVLLLPETKGKALPETIEEAENMQRPRKNKEKMIYLQVQKLDIPLN
For the molecule B3, the Km in “not read [3]” (other: OCT2 A270S) was 14.7 (± 4.1) μM; in “not read [6]” it was 24.3 (± 17.0) μM; in the data set “not read [4]” (other: OCT2 A270S), 14.2 (± 7.9) μM; in the data set “not read [5]” (other: OCT2 A270S), 14.4 (± 8.6) μM. The Vmax in the data set “not read [3]” (other: OCT2 A270S) is recorded as 229.5 (± 18.2) pmol × mg protein^-1 × min^-1; in “not read [4]” (other: OCT2 A270S) it was 164.2 (± 25.9) pmol × mg protein^-1 × min^-1; in “not read [5]” (other: OCT2 A270S), 172.1 (± 31.5) pmol × mg protein^-1 × min^-1.

Source of the values: paper PMC7854383, “Cellular Uptake of Psychostimulants – Are High- and Low-Affinity Organic Cation Transporters Drug Traffickers?” (Frontiers in Pharmacology, 2021).
